In experiment [1] the target is ATOR-1017 (evunzekibart) (human). Briefly: BLI; Octet RED96; antibodies captured on FABG2 biosensor tips, recombinant Fcγ receptors in solution at suitable concentration ranges; association and dissociation at physiological pH. The note with it: remark: other sources report otherwise.
Experiment [2] deals with human 4-1BB on activated primary human immune cells (human (endogenous in primary PBMC)) (UniProt Q07011).

Here are results for 4 molecules from article PMC10700433.

Chain of human 4-1BB on activated primary human immune cells (human (endogenous in primary PBMC)) (Q07011 24-255): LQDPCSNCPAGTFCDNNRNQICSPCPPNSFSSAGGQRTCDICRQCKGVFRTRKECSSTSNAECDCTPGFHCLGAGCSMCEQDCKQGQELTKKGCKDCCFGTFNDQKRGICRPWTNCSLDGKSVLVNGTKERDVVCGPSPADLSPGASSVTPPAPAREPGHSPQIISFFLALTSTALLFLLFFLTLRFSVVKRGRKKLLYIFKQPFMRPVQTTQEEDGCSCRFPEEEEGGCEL

B1: human FcγRIIb, P31994 43-310 (receptor)
chain: TPAAPPKAVLKLEPQWINVLQEDSVTLTCRGTHSPESDSIQWFHNGNLIPTHTQPSYRFKANNNDSGEYTCQTGQTSLSDPVHLTVLSEWLVLQTPHLEFQEGETIVLRCHSWKDKPLVKVTFFQNGKSKKFSRSDPNFSIPQANHSHSGDYHCTGNIGYTLYSSKPVTITVQAP
modifications: here or on the partner: soluble ectodomain assumed for BLI
Usually Kd stands for a measure of binding affinity in units of concentration. In the case of B1, the Kd in experiment [1] turned out to be 800 nM.

B2: mouse FcγRI, P26151 25-404 (receptor)
chain: EVVNATKAVITLQPPWVSIFQKENVTLWCEGPHLPGDSSTQWFINGTAVQISTPSYSIPEASFQDSGEYRCQIGSSMPSDPVQLQIHNDWLLLQASRRVLTEGEPLALRCHGWKNKLVYNVVFYRNGKSFQFSSDSEVAILKTNLSHSGIYHCSGTGRHRYTSAGVSITVKELFTTPVLRASVSSPFPEGSLVTLNCETNLLLQRPGLQLHFSFYVGSKILEYRNTSSEYHIARAEREDAGFYWCEVATEDSSVLKRSPELELQVLGPQSSAP
modifications: here or on the partner: soluble ectodomain assumed for BLI
For the molecule B2, the Kd in experiment [1] was 200 nM.

B3: ATOR-1017 (evunzekibart) (antibody, V domains shown)
VH: EVQLLESGGGLVQPGGSLRLSCAASGFNFGYSYMSWVRQAPGKGLEWVSSIGSTSSHTYYADSVKGRFTISRDNSKNTLYLQMNSLRAEDTAVYYCARVYSSPGIDYWGQGTLVTVSS
VL: DIQMTQSPSSLSASVGDRVTITCRASQSIGSTLNWYQQKPGKAPKLLIYGASSLQSGVPSRFSGSGSGTDFTLTISSLQPEDFATYYCQQYYTWVPFTFGQGTKLEIK
Turning to B3, in experiment [2], the IFNγ production by IL-2 pre-stimulated human NK cells co-cultured with FcγRI-CHO cells, serially diluted ATOR-1017 is 0.1 nM and the IFNγ production by anti-CD3-activated human CD8+ T cells co-cultured with FcγRI-CHO cells, 72 h, serially diluted ATOR-1017 worked out at 0.2 nM.

B4: human FcγRIIa, P12318 34-317 (receptor)
chain: QAAAPPKAVLKLEPPWINVLQEDSVTLTCQGARSPESDSIQWFHNGNLIPTHTQPSYRFKANNNDSGEYTCQTGQTSLSDPVHLTVLSEWLVLQTPHLEFQEGETIMLRCHSWKDKPLVKVTFFQNGKSQKFSHLDPTFSIPQANHSHSGDYHCTGNIGYTLFSSKPVTITVQVPSMGSSSPMG
modifications: here or on the partner: Soluble extracellular domain by convention (UniProt topology); construct limits not printed. Allotype of the recombinant protein not stated in the excerpt: given as H131 (H167 in precursor numbering);
For B4, the dissociation constant (Kd) in experiment [1] was 1000 nM.
